# Patent US12384831 (SHINSHU UNIVERSITY, dated 2025)
# B1: fusion protein of Fv-type anti-LOX-1 antibody (#10-1) and human ApoA I (31-267aa) (other)
# chain: EVKLLESGGGLVQPGGSLKLSCAVSGFDFSRYWMSWVRQAPGKGLEWIGEINPDSSTINFTPSLKDKFIVSRDNAKNTLYLQMSKVRSEDTALYYCARNDVLLGAMDYWGQGTSVTVSSGGGGSGGGGSGGGGSDVLMTQTPLSLPVSLGDQASISCRSSQTIVHSNGKTYLEWYLQKPGQSPKLLIYKVSNRFSGVPDRFSGSGSGTDFTLKISRVEAEDLGVYYCFQGSHVPLTFGAGTKLELKGGGGSGGGGSGGGGSPWDRVKDLATVYVDVLKDSGRDYVSQFEGSALGKQLNLKLLDNWDSVTSTFSKLREQLGPVTQEFWDNLEKETEGLRQEMSKDLEEVKAKVQPYLDDFQKKWQEEMELYRQKVEPLRAELQEGARQKLHELQEKLSPLGEEMRDRARAHVDALRTHLAPYSDELRQRLAARLEALKENGGARLAEYHAKATEHLSTLSEKAKPALEDLRQGLLPVLESFKVSFLSALEEYTKKLNTQ
# notes: Expressed from the pEF6-V5-His vector in Expi293 cells, secreted and His-purified; also called chimeric protein; artificial recombinant protein
# Target: recombinant human LOX-1 (61-273aa) (human, UniProt P78380 61-273)
# Assay: sandwich ELISA, LOX-1 immobilized, detection by anti-ApoA I antibody
# Procedure: The recombinant human LOX-1 (61-273aa) or protein Dectin-1 belonging to the same family with LOX-1 for the contrast reference was immobilized on the ELISA plate at 4° C. overnight. After washing with PBS, it was blocked by HEPES buffer including 3% BSA (10 mM HEPES, 150 mM NaCl, pH7.4). After washing PBS three times, oxidized HDL, HDL, oxidized LDL and LDL were respectively added thereto, and they were incubated. After washing with PBS, chicken anti-ApoA I monoclonal antibody (chicken monoclonal […]) or HRP-labeled anti-ApoA I polyclonal antibody (sheep polyclonal […]) was added thereto. When chicken anti-ApoA I monoclonal antibody was used, chicken anti-ApoA I monoclonal antibody was added thereto and reacted for 1 hour at room temperature and then it was washed with PBS and secondary antibody: HRP-labeled Donkey anti-chicken IgY was added and incubated for 1 hour at room temperature.
# After the antibody response, it was washed with PBS for 5 times. And then, TMB solution was added onto the plate and made it react them at room temperature. After stopping the reaction by 2M sulfuric acid, the absorbency at 450 nm was determined by using SpectraMax 340PC384 (Molecular Devices) to detect the oxidized HDL bound. […]
binder,measurement,value
B1,binding result,binds
